We go through 2 substances from US20080003614.

Data set [1] concerns 35S-labeled FLAG-MAVS (in vitro translated).
For data set [2], the system named is 35S-labeled FLAG-MAVS-C508R (in vitro translated).

Turning to “Flag-NS3/4A (wild type hepatitis C virus NS3/4A serine protease)”, the “cleavage of 35S-labeled MAVS in vitro (SDS-PAGE, PhosphorImaging)” value is “the wild type MAVS was cleaved by the active NS3/4A protease” in data set [1] and “a point mutation at Cys-508 completely blocked the cleavage of MAVS by NS3/4A in vitro” in data set [2]. Consider “Flag-NS3/4A (S139A), protease-dead mutant”, for which the “cleavage of 35S-labeled MAVS in vitro (SDS-PAGE, PhosphorImaging)” value in data set [1] is “the wild type MAVS was cleaved by the active NS3/4A protease, but not the inactive NS3/4A mutant”.
